Reference: patent US20250163117A1 (CURE GENETICS, published 2025)

Experiments:
[1] = biological target: T1, Human IL-2Rβ&IL-2Rγ heterodimer protein (human, UniProt P14784 27-239; P31785 23-262, limits assumed); assay: SPR (Biacore, receptor on CM5 chip, IL-2 as analyte), 1:1 binding
T1 construct: Heterodimer protein used as SPR ligand; also called IL-2Rβγ; Human IL-2RB&G
T1 sequence (looked up) 1: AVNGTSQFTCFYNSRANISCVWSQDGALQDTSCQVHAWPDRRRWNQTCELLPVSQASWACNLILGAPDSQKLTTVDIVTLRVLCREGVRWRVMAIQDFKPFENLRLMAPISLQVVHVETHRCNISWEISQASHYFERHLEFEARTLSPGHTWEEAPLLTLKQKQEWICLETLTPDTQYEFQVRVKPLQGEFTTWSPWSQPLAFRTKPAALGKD
T1 sequence (looked up) 2: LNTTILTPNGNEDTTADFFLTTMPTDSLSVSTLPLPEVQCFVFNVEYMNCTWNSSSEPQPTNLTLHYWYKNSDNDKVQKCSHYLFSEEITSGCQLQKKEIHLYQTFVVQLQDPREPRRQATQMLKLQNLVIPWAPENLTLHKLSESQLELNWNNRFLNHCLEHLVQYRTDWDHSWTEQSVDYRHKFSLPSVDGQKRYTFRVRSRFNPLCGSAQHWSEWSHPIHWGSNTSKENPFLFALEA
Protocol: (§1) The human IL-2 receptors used in this study included IL-2Rα/CD25, IL-2Rβ/CD122, common γ receptor/CD132, IL-2Rβ&IL-2Rγ heterodimer protein, and IL-2Rβ&IL-2Rα&IL-2Rγ protein. The IL-2 receptor proteins were immobilized on a Biacore™ sensor chip CM5 according to manufacturer's protocol. […] The resulting sensorgrams were analyzed with the native instrument software to calculate the binding affinities.

[2] = biological target: T2, Human IL-2Rβ&IL-2Rα&IL-2Rγ protein (human, UniProt P14784 27-239; P01589 22-217; P31785 23-262, limits assumed); assay: as above
T2 construct: Trimeric receptor protein used as SPR ligand; also called IL-2Rαβγ; Human IL-2RB&IL-2RA&IL-2RG
T2 sequence (looked up) 1: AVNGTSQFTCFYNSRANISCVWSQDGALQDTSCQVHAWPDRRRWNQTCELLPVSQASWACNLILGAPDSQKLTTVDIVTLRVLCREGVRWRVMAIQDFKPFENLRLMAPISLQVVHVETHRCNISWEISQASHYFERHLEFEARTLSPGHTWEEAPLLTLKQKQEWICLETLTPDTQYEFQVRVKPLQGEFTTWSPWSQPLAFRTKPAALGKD
T2 sequence (looked up) 2: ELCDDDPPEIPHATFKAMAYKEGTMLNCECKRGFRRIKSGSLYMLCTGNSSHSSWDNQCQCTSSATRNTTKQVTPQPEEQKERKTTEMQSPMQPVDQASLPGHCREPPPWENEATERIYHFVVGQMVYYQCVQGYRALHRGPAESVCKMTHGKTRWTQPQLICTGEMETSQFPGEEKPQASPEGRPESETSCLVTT
T2 sequence (looked up) 3: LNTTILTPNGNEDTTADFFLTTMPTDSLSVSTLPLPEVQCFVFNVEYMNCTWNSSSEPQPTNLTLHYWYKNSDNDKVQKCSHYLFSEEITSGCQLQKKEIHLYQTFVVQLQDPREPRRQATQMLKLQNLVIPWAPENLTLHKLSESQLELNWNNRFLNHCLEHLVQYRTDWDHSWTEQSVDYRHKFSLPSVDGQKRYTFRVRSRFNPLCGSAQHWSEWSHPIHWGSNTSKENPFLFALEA
Protocol: as §1

B1: CP-trIL-2 012 (ligand)
chain: PTSSSTKKTQLQLEHLLLDLQMILNGINNYKNPLRPRDLISNINVIVLELKGSETTELKHLQSLEEELKDLEEVLNLAQSKNFHTIVEFLNRWITFSQSIISTLT
notes: H1-H3-H2-H4; loops 1 and 2 removed; de-Ala1, C58S, C125S, P65D
B1 gave a Kd [1] of 0.467 nM, a koff [1] of 0.00106 s⁻¹ and a kon [1] of 2.28e+06 M⁻¹ s⁻¹. For the same binder, the Kd [2] was 0.575 nM, the koff [2] was 0.000732 s⁻¹ and the kon [2] was 1.27e+06 M⁻¹ s⁻¹.
